For two molecules, Kd results are on record in US20110014182A1 (published 2011).

For the experiment, the target named is T1, human β-amyloid (1-40) peptide (human, UniProt P05067 672-711).
T1 construct: domain: β-amyloid (1-40); Used free in solution, coated on plates, or N- or C-terminally biotinylated, as told under assay; also called Aβ peptide (1-40); Aβ1-40
Briefly: SPR (Biacore T100), antibody captured on anti-human IgG, beta amyloid (1-40), 37°C. Here is the method: Anti-human IgG (Biacore BR-1008-39) was coupled to a CM5 biosensor chip by primary amine coupling. The anti-beta amyloid antibodies were captured on this surface. Beta amyloid (1-40) was then passed over at 256, 64, 16, 4 and 1 nM, with a 0 nM (ie buffer alone passed over the captured antibody surface) used for double referencing. […] The data was analysed using the 1:1 model inherent to the T100. The run was carried out at 25° C. and 37° C. using HBS-EP as the running buffer.
From this panel some constructs were also assessed for binding kinetics at physiological temperature.
(In general: Surface plasmon resonance follows binding to a sensor surface in real time, without labels.)

The term Kd denotes the concentration at which binding is half-saturated. Higher therefore signals a looser complex.

T1 sequence (P05067 672-711 limits assumed): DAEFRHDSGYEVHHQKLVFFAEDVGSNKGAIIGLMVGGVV

B1: humanised de-immunised construct H48L17 (antibody, name in Kabat numbering, V domains shown)
VH: QVQLVQSGAEVKEPGASVKVSCKGSGFNIHVYYVHWLRQLPEKGLEWIGRIDPENGETIYTPKFQDKATLTVDTSTDTAYMELSSLRSEDTAVYYCVSSGYWGQGTLVTVSS
VL: DIVMTQSPLSNPVTPGEPASISCRSSKSLLHRNGITYLYWYLQKPGQSPQLLIYQMSHLASGVPDRFSSSGSGTDFTLKISRVEAEDVGVYYCAQNLELWTFGQGTKVEIK
B1 gave a Kd of 4.72 nM.

B2: humanised de-immunised construct H49L17 (antibody, name in Kabat numbering, V domains shown)
VH: QVQLVQSGAEVKEPGASVKVSCKGSGFNIKTYYVHWLRQLPEKGLEWIGRIDPENGETIYTPKFQDKATLTVDTSTDTAYMELSSLRSEDTAVYYCVSSGYWGQGTLVTVSS
VL: DIVMTQSPLSNPVTPGEPASISCRSSKSLLHRNGITYLYWYLQKPGQSPQLLIYQMSHLASGVPDRFSSSGSGTDFTLKISRVEAEDVGVYYCAQNLELWTFGQGTKVEIK
As to B2, the Kd was 4.21 nM.
